The test system of data set [1] is Hin recombinase consensus sequence (hixL) dsDNA. Nature of the data set: Total fluorescence reverse titration of conjugate with nonlabeled consensus DNA. The class given is binding, S. typhimurium. The procedure:
Fluorescence Measurements. Steady state fluorescence anisotropy and total fluorescence measurements were performed as forward and reverse titrations, respectively, as described previously, M. Thompson, et al., supra, 2000. Forward titrations of the tetramethylrhodamine labeled DNA (TMR-DNA) with nonlabeled DNA-binding domains were performed at 10 nM TMR-DNA. Vertical excitation was at 542 nm with detection in the verticle and horizontal planes at 582 nm. Reverse titrations of 1 nM of the appropriate conjugate were titrated with nonlabeled DNA. Excitation and emission detection was at 480 nm and 510 nm for oxazole yellow and 510 nm and 535 nm for thiazole orange samples. Salt dependence studies were performed by titrating an appropriate amount of 1 M NaCl in the same Tris buffer to yield the indicated final salt concentration. Temperature dependence studies were performed by incubating each sample for 30 minutes at the given temperature. The temperature of the sample was held constant by pumping water through the cuvette holder from a temperature equilibrated water bath. Each titration was performed at least 3 times.
Determination of thermodynamic functions. The contribution of the hydrophobic effect and the polyelectrolyte effect to the stability of the conjugate or DNA-binding domain—DNA complex is assessed by analysis of the dependence of the observed association equilibrium constant Kobs for a range of temperatures and salt concentrations as in the following: [formula]
where, [P] eq is the concentration of the conjugate or DNA-binding domain, [D] eq is the concentration of DNA, and [PD] eq is the concentration of bound complex at equilibrium. The analysis is based on the assumption that this is a single-step bimolecular reaction.
Specific binding by the dye labeled peptides (conjugates). The binding affinity of the two dye labeled peptides comprising the Hin recombinase and Tc3 transposase DNA-binding domains conjugated to oxazole yellow and thiazole orange, respectively, were determined. In this case, the total fluorescence intensity can be used to determine the binding affinity by these systems. […] In addition, the bound and free populations of the conjugate, and therefore the dye, present at equilibrium have such an extreme increase in quantum yield (˜1000-5000-fold) that the total fluorescence from the system is a very sensitive and accurate way to monitor binding. Note that each oligonucleotide shown was hybridized to […] forming a dsDNA segment.
In FIG. 9, semi-log plot of the total fluorescence of I nM conjugate is plotted as the log of the concentration of nonlabeled DNA containing each respective consensus sequence. The solid lines represent a fit for the percent of the maximal fluorescence values at 298 K, 0.150 M Na+, (●),313 K, 0.150 M Na+ (t) and 298 K, 0.250 M Na+(▪). The binding constants (Kobs) determined from these curves and the corresponding binding free energies (DG°) are given in Table 1 for the range of salt concentrations (0.15 to 0.25 M Na+) and temperatures (275 to 313 K) investigated. The equilibrium constant decreases 7- and 10-fold for the TOTc3 and YOHin, respectively, when the salt concentration is increased from 0.15 to 0.25 M salt.

For data set [2], the target named is T1, TO-ZF (thiazole orange-GR zinc finger conjugate) (UniProt P06536 SEQ:1-28).
T1 chain: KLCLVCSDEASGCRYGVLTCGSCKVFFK
Nature of the data set: TO fluorescence titration; single base change in half-site. To be noted: protein: synthetic; tags: thiazole orange on Lys epsilon-amine (first residue coupled to resin); synthetic solid-phase peptide (text states 29 aa, listing 28 aa), Zn-loaded.

The target in data set [3] is T1, TO-ZF (thiazole orange-GR zinc finger …). Nature of the data set: TO fluorescence titration; single G to A change in half-site. The note with it: protein: synthetic; tags: thiazole orange on Lys epsilon-amine (first residue coupled to resin); synthetic solid-phase peptide (text states 29 aa, listing 28 aa), Zn-loaded.
For data set [4] the target is unchanged. Nature of the data set: TO fluorescence titration; same buffer. The note with it: protein: synthetic; tags: thiazole orange on Lys epsilon-amine (first residue coupled to resin); synthetic solid-phase peptide (text states 29 aa, listing 28 aa), Zn-loaded.
Data set [5] has the same target. The data set is described as follows: same as poly(dG)-poly(dC) within experimental error. To be noted: protein: synthetic; tags: thiazole orange on Lys epsilon-amine (first residue coupled to resin); synthetic solid-phase peptide (text states 29 aa, listing 28 aa), Zn-loaded.
Data set [6] has as its target T2, YOHin (oxazole yellow-Hin recombinase DNA-binding domain, residues 139-190) (UniProt P03013 SEQ:1-52).
T2 chain: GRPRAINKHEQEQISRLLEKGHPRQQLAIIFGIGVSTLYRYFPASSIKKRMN
Nature of the data set: 298 K, 0.150 M Na+; 275 K 22e6, 293 K 143e6, 313 K 29e6; 298 K 0.250 M Na+ 14e6. The note with it: protein: synthetic; tags: oxazole yellow covalently attached; synthetic solid-phase peptide.

Data set [7] has as its target T1, TO-ZF (thiazole orange-GR zinc finger …). Nature of the data set: TO fluorescence titration; 20 mM Tris pH 7.9, 30 mM NaCl, 20 mM KCl, 1 mM MgCl2, 5% glycerol, ZnCl2. To be noted: protein: synthetic; tags: thiazole orange on Lys epsilon-amine (first residue coupled to resin); synthetic solid-phase peptide (text states 29 aa, listing 28 aa), Zn-loaded.
The target of data set [8] is T3, TOTc3 (thiazole orange-Tc3 transposase DNA-binding domain, residues 202-253) (UniProt P34257 SEQ:1-51).
T3 chain: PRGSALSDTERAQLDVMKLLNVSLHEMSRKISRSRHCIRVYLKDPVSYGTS
Nature of the data set: 298 K, 0.150 M Na+; 275 K 22e6, 293 K 66e6, 313 K 22e6; 298 K 0.250 M Na+ 17e6. The note with it: protein: synthetic; tags: thiazole orange covalently attached; synthetic solid-phase peptide (text states 52 aa, listing 51 aa).

Data set [9] deals with T1, TO-ZF (thiazole orange-GR zinc finger …). Nature of the data set: TO fluorescence titration; two base changes vs GRE. The note with it: protein: synthetic; tags: thiazole orange on Lys epsilon-amine (first residue coupled to resin); synthetic solid-phase peptide (text states 29 aa, listing 28 aa), Zn-loaded.

No end group written: not given here.

With “YOHin: oxazole yellow conjugated to the 52 amino acid Hin DNA binding domain, residues 139-190 of Hin recombinase (GRPRAINKHEQEQISRLLEKGHPRQQLAIIFGIGVSTLYRYFPASRIKKRMN; also: oxazole yellow conjugated, site not given here; UniProt P03013 139-190, looked up, fragment)”, the “decrease of equilibrium constant when salt is increased from 0.15 to 0.25 M” value in data set [1] (0.15 to 0.25 M salt) is 10 fold. Besides, the Kobs in [1] (275 K, 0.150 M Na+) was 22 (M^−1) × 10^−6; in data set [1] (278 K, 0.150 M Na+) it was 21 (M^−1) × 10^−6; in data set [1] (283 K, 0.150 M Na+), 40 (M^−1) × 10^−6; in data set [1] (288 K, 0.150 M Na+), 61 (M^−1) × 10^−6; in [1] (293 K, 0.150 M Na+), 143 (M^−1) × 10^−6; in data set [1] (298 K, 0.150 M Na+), 83 (M^−1) × 10^−6. Moreover, the Kobs in data set [1] (298 K, 0.175 M Na+) is 67 (M^−1) × 10^−6; in data set [1] (298 K, 0.200 M Na+), 37 (M^−1) × 10^−6; in [1] (298 K, 0.225 M Na+), 29 (M^−1) × 10^−6; in data set [1] (298 K, 0.250 M Na+), 14 (M^−1) × 10^−6; in data set [1] (303 K, 0.150 M Na+) it was 60 (M^−1) × 10^−6; in data set [1] (308 K, 0.150 M Na+), 41 (M^−1) × 10^−6. In [1] (313 K, 0.150 M Na+), the Kobs was 29 (M^−1) × 10^−6. Moreover, the “ΔG°” value in [1] (275 K, 0.150 M Na+) was -9.2 kcal/mol; in data set [1] (278 K, 0.150 M Na+), -9.3 kcal/mol; in data set [1] (283 K, 0.150 M Na+), -9.8 kcal/mol; in [1] (288 K, 0.150 M Na+), -10.3 kcal/mol; in data set [1] (293 K, 0.150 M Na+), -10.9 kcal/mol; in data set [1] (298 K, 0.150 M Na+), -10.8 kcal/mol. Moreover, the “ΔG°” value in [1] (298 K, 0.175 M Na+) is -10.7 kcal/mol; in data set [1] (298 K, 0.200 M Na+), -10.3 kcal/mol; in [1] (298 K, 0.225 M Na+) it was -10.2 kcal/mol; in [1] (298 K, 0.250 M Na+), -9.8 kcal/mol; in [1] (303 K, 0.150 M Na+), -10.8 kcal/mol; in data set [1] (308 K, 0.150 M Na+), -10.7 kcal/mol. Besides, the “ΔG°” value in data set [1] (313 K, 0.150 M Na+) is -10.7 kcal/mol.

B1: GRE4 (dsDNA)
DNA 1: TCATACATCTAACTGTCCTATCA
DNA 2: TGATAGGACAGTTAGATGTATGA
By Kd is commonly meant a measure of binding affinity in units of concentration. A high value points to weaker binding. The molecule B1 yielded a Kd in data set [2] of 220 nM. This lies in the sub-micromolar range.

B2: GRE3 (dsDNA)
DNA 1: TCATACATCTAACTATTCTATCA
DNA 2: TGATAGAATAGTTAGATGTATGA
In turn, B2 returned a Kd in [3] of 57 nM. In other words, the double-digit nanomolar range.

B3: GRE2 (dsDNA)
DNA 1: TGATACGGCTGACTGTTCTATGA
DNA 2: TCATAGAACAGTCAGCCGTATCA
Molecule B3 yielded a Kd in [4] of 25 nM.

B4: (dGdC)20 (dsDNA)
DNA 1: GCGCGCGCGCGCGCGCGCGCGCGCGCGCGCGCGCGCGCGC
DNA 2: GCGCGCGCGCGCGCGCGCGCGCGCGCGCGCGCGCGCGCGC
modifications: [none]
In [5], B4 registered a Kd of approximately 1100 nM.

B5: hixL (Hin consensus) oligonucleotide (dsDNA)
DNA 1: TCTTATCAAAAACACTATCGTCGCACGGCTAC
DNA 2: GTAGCCGTGCGACGATAGTGTTTTTGATAAGA
As to B5, the Ka in [6] was 8.3e+07 M⁻¹.

B6: GRE1 (dsDNA)
DNA 1: TCATACCACTAACTGTTCTATCA
DNA 2: TGATAGAACAGTTAGTGGTATGA
B6: the Kd in data set [7] came to 25 nM. This lies in the double-digit nanomolar range.

B7: Tc3 consensus oligonucleotide (dsDNA)
DNA 1: ATCGGCACGATGCTAGTTCTATAGGACCCCCC
DNA 2: GGGGGGTCCTATAGAACTAGCATCGTGCCGAT
As for B7, the Ka in data set [8] came to 2.45e+08 M⁻¹.

B8: ERE (dsDNA)
DNA 1: TCATACATCTAACTGACCTATCA
DNA 2: TGATAGGTCAGTTAGATGTATGA
The molecule B8 gave a Kd in data set [9] of 810 nM.
